Reference: patent US9949489B2, “Methods for control of hemipteran insect stylet sheath structure formation” (The United States of America, as Represented by the …, priority 2015, dated 2018)

B1: Trypsin from bovine pancreas: Serine peptidase; Sigma #T8658 (protein, UniProt P00760 24-246, looked up)
Serine protease 1: IVGGYTCGANTVPYQVSLNSGYHFCGGSLINSQWVVSAAHCYKSGIQVRLGEDNINVVEGNEQFISASKSIVHPSYNSNTLNNDIMLIKLKSAASLNSRVASISLPTSCASAGTQCLISGWGNTKSSGTSYPDVLKCLKAPILSDSSCKSAYPGQITSNMFCAGYLEGGKDSCQGDSGGPVVCSGKLQGIVSWGSGCAQKNKPGVYTKVCNYVSWIKQTIASN
B2: Amyloglucosidase from Aspergillus niger: Hydrolyses α-D-(1-4), α-D-(1-6) and α-D-(1-3) glucosidic bonds of oligosaccharides; Sigma #A7420 (protein, UniProt P69328 25-640, looked up)
Glucoamylase: ATLDSWLSNEATVARTAILNNIGADGAWVSGADSGIVVASPSTDNPDYFYTWTRDSGLVLKTLVDLFRNGDTSLLSTIENYISAQAIVQGISNPSGDLSSGAGLGEPKFNVDETAYTGSWGRPQRDGPALRATAMIGFGQWLLDNGYTSTATDIVWPLVRNDLSYVAQYWNQTGYDLWEEVNGSSFFTIAVQHRALVEGSAFATAVGSSCSWCDSQAPEILCYLQSFWTGSFILANFDSSRSGKDANTLLGSIHTFDPEAACDDSTFQPCSPRALANHKEVVDSFRSIYTLNDGLSDSEAVAVGRYPEDTYYNGNPWFLCTLAAAEQLYDALYQWDKQGSLEVTDVSLDFFKALYSDAATGTYSSSSSTYSSIVDAVKTFADGFVSIVETHAASNGSMSEQYDKSDGEQLSARDLTWSYAALLTANNRRNSVVPASWGETSASSVPGTCAATSAIGTYSSVTVTSWPSIVATGGTTTTATPTGSGSVTSTSKTTATASKTSTSTSSTSCTTPTAVAVTFDLTATTTYGENIYLVGSISQLGDWETSDGIALSADKYTSSDPLWYVTVTLPAGESFEYKFIRIESDDSVEWESDPNREYTVPQACGTSTATVTDTWR
B3: Papain from papaya latex: Cysteine peptidase; Sigma #P5306 (protein, UniProt P00784 134-345, looked up)
Papain: IPEYVDWRQKGAVTPVKNQGSCGSCWAFSAVVTIEGIIKIRTGNLNEYSEQELLDCDRRSYGCNGGYPWSALQLVAQYGIHYRNTYPYEGVQRYCRSREKGPYAAKTDGVRQVQPYNEGALLYSIANQPVSVVLEAAGKDFQLYRGGIFVGPCGNKVDHAVAAVGYGPNYILIKNSWGTGWGENGYIRIKRGTGNSYGVCGLYTSSFYPVKN
B4: Proteinase K from Tritirachium album: Broad protease specificity; Fischer #BP1700-100 (protein, UniProt P06873 106-384, looked up)
Proteinase K: AAQTNAPWGLARISSTSPGTSTYYYDESAGQGSCVYVIDTGIEASHPEFEGRAQMVKTYYYSSRDGNGHGTHCAGTVGSRTYGVAKKTQLFGVKVLDDNGSGQYSTIIAGMDFVASDKNNRNCPKGVVASLSLGGGYSSSVNSAAARLQSSGVMVAVAAGNNNADARNYSPASEPSVCTVGASDRYDRRSSFSNYGSVLDIFGPGTSILSTWIGGSTRSISGTSMATPHVAGLAAYLMTLGKTTAASACRYIADTANKGDLSNIPFGTVNLLAYNNYQA

Columns and labels:
[1] = test system: D. citri stylet sheaths (ACP SSs); test: Degradation of preformed, solidified stylet sheaths by enzymes (MFC membrane or slide incubation); design: species or system Diaphorina citri; key to Sheath Degradation: −: No effect apparent; +/−: inconclusive; +: apparent slight effect; ++: increased apparent effect; +++: high effect; ++++: very high effect; +++++: complete degradation of sheaths or inhibition of sheath synthesis; details: for Sheath Degradation: enzyme concentration, pH and temperature per Table 4 (cellulase 1:25, pH 6.0, 60° C.); for Effect on preformed D. citri stylet sheaths: cellulase 1:25, pH 6.0, 60° C., 72 hours, Flavourzyme about 30 minutes, proteinase K 55° C. overnight
Protocol: In order to test cellulase's effect on preformed ACP SSs, formed, solidified stylet sheaths were harvested directly from the surface of an MFC membrane (in these experiments either plastic wrap or parafilm was used) as described herein and in Morgan et al. 2013, supra. Approximately 100 psyllids were placed into an MFC for about 24 hours. The MFCs consisted of D. citri caged individually and/or in groups within 100 mm×15 mm plastic Petri dishes. A single kitchen plastic wrap layer was stretched across the top of each Petri dish to seal the Petri dish from insect escape and to provide a stylet penetrable surface for insect probing.
Several MFCs (the Petri dishes covered with kitchen plastic wrap or parafilm and containing D. citri) were placed into clear Pyrex® baking dishes with the membrane (kitchen plastic wrap or parafilm) side up, and the Pyrex® baking dish is covered with a single layer of clear kitchen plastic wrap to prevent external contaminant interactions with the membrane surface during incubation. MFCs were incubated at a temperature of about 25° C., relative humidity of about 75%, and a light:dark cycle of about 14:1. Collection of partial stylet sheaths, shaft/branching portions without the flange, was performed using deionized water applied directly to the sheath surface to wash the surface of the MFC, and then the application of approximately 100 μl of an approximately 50 mM sodium phosphate buffer at a pH of approximately 6.0 for direct harvest of partial sheaths from the membrane surface using a bent glass rod to scour the plastic wrap surface to dislodge the stylet sheaths. The sodium phosphate buffer containing dislodged sheath shafts was removed using a pipette and placed in a microcentrifuge tube (1.5 ml tube), and cellulase (Sigma #C2605, Sigma Aldrich, St. Louis, Mo.) was added by ratio at approximately 1 part cellulase to 25 parts sodium phosphate buffer (approximately 1:25 ratio). Approximately 15 μl was then transferred to a pre-cleaned glass slide (Fisher, #12-550-19, Thermo Fisher Scientific, Inc., Waltham Mass.), covered with a premium cover slip, and edges sealed using clear nail polish CG, 3INI NL #Q004 SHN ON (CoverGirl, Hunt Valley, Md.) to keep the buffer from evaporating during incubation. This slide was then placed in an approximately 60° C. incubator of about 72 hours and observed at about 24 hour intervals.
FIGS. 3A, 3B, and 3C and FIGS. 3D, 3E, and 3F are light micrograph pictures of repeated experiments representing separate treatment of two salivary sheaths. FIG. 3A and FIG. 3D are separate salivary sheaths prior to the addition of cellulase. FIG. 3B and FIG. 3E are the same sheaths, respectively, after 72 hours incubation with cellulase. FIG. 3C and FIG. 3F are the same sheaths, respectively, when gentle pressure was applied to the coverslip over the sheaths that had been incubated with cellulase for 72 hours. […] Because of the observed result with cellulase, sheath degradation experiments as described above for cellulase were performed using a number of polysaccharide-degrading enzymes and proteases. […] Both carbohydrate-degrading enzymes and proteases were effective at degrading the sheaths.
While not wishing to be bound to any particular hypothesis, based on the results of Examples 1, 2, and 3, it is hypothesized that the structure of the ACP SSs could include protein cross-links that are catalyzed by an enzyme with an oxidative role, an enzyme at least somewhat similar to a lysyl oxidase. To determine if a protein is associated with the identified glucan, proteases were tested in experiments similar to Examples 1 and 2 above. The following proteases were added individually in separate experiments (described infra) to membranes on which D. citri adults were previously allowed to first form sheaths in the absence of proteases: Flavourzyme® (a protease cocktail), carboxypeptidase W, chymopapain, bromelain, papain, ficin, licheninase, laminarinase, and β-(1→3)-D-glucanase. […]

[2] = test system: D. citri; test: Liquid ACP diet sandwich feeding assay (MFC): inhibition of de novo stylet sheath formation; assay type: in vivo, Diaphorina citri; details: about 24 h; cellulase approx 1 unit/μl; BAPN 100 mM; EDTA approx 2 mM; proteases per Table 5
Protocol: (§1) The next step was to determine if addition of cellulase to the diet of D. citri would interfere with stylet sheath formation. A D. citri diet is prepared as described by Hall, David et al., “Research toward an artificial diet for adult Asian citrus psyllid,” Annals of the Entomological Society of America 103.4:611-617 (2010). Approximately 25 D. citri were collected into polystyrene Cellstar 35 mm×10 mm dishes (Griener Bio-One, Monroe, N.C.) that were then sealed using a single layer of Parafilm® M (Pechiney Plastic Packaging Company, Chicago, Ill.). Approximately 99 μl of liquid ACP diet (e.g., diet lacking the solidifying agar component, see Hall, et. al., 2010, supra) was mixed with approximately 1 μl of cellulase (Sigma Aldrich, St. Louis, Mo.) and mixed. […]
(§2) Because many biomolecule polymerizing enzymes require divalent cations as cofactors, the effect of ethylenediaminetetraacetic acid (EDTA), a chelator of divalent cations, on ACP SS formation was tested by adding EDTA to the previously described liquid ACP diet (see Hall et al., 2010, supra). […] Uncommon bands between the liquid ACP diet containing EDTA and liquid ACP diet without EDTA (negative control) lanes were cut out and analyzed by Orbitrap (Thermo Scientific, Waltham, Mass.) protein analysis, according to manufacturer's protocol. […]

[3] = test system: D. citri; test: as above; assay type: in vivo, Diaphorina citri; design: key: −: No effect apparent; +/−: inconclusive; +: apparent slight effect; ++: increased apparent effect; +++: high effect; ++++: very high effect; +++++: complete degradation of sheaths or inhibition of sheath synthesis; details: enzyme in liquid ACP diet, about 24 h, 25° C., enzyme amounts and pH per Table 5 (cellulase approx 1 unit/μl)
Protocol: as §1, §2

Molecule	Sheath Degradation ([1]; D. citri preformed sheaths)	Effect on D. citri stylet sheath formation in liquid ACP diet [2]	Inhibition of Sheath Formation [3]	Sheath Degradation, remark in words ([1]; D. citri preformed sheaths)	Effect on preformed D. citri stylet sheaths [1]
B1	−	did not appear to have an inhibitory effect	−		
B2	++			Sheaths swell	adversely impact stylet sheath integrity
B3	++	capable of inhibiting the formation of ACP SSs	++++		
B4	+++++				completely dissolves
